This assay has as its target QTARK^MeSTGC (SEQ ID NO: 4), methylated H3K9 peptide ligand immobilized on the monolayer. As to the kind of experiment: cell-based or functional assay.

In the case of “Cbx1 fusion protein (Cbx1 chromodomain fused to KDAC8 through a short linker) (from UniProt P83916 20-73; Q9BY41 1-377)”, the rate acceleration for the deacetylation reaction (SAMDI mass spectrometry) came to 20 fold.
